Results taken from paper PMC8646600 (Advanced Science, 2021).

Key:
[1] = target: SARS-CoV-2 RBD titrated over immobilised Fabs (construct not stated) (SARS-CoV-2 (ancestral, Wuhan-Hu-1 …, UniProt P0DTC2)); assay: BLI; details: both partners purified
[2] = target: T1, SARS-CoV-2 spike RBD (S-RBD), hFc tag removed by thrombin digestion, biotinylated (SARS-CoV-2, UniProt P0DTC2); assay: BLI; details: both partners purified
[3] = target: T1, SARS-CoV-2 spike RBD (S-RBD), hFc tag …; assay: ELISA; details: both partners purified
[4] = target: T2, full-length SARS-CoV spike expressed on cells (SARS-CoV, strain , UniProt P59594); assay: flow cytometry on cells; details: one partner purified
T2 construct: source: HEK293T, transiently transfected, on cells

B1: S-B8 Fab (Fab, V domains shown)
VH: QVQLVQSGGGLIQPGGSLRLSCAASGFTVSLSHMNWVRQAPGKGLEWVSITYGDGNSDYADSVKGRFTISRDNSKNTLYLQMNSLRAEDTAVYYCAREYYYGMDVWGQGTTVTVSS
VL: not shown
With B1 the Kd [1] was 15.4 nM.

B2: S-B8 full-length human IgG4e1(S228P) antibody (antibody, V domains shown)
VH: B1 VH
VL: not shown
notes: also called S-B8 IgG; source: HEK293F, secreted; clarified culture supernatant, and purified (Mabselect)
Work on B2 yielded a Kd [2] of 7.79 nM and an IC50 [3] of 12.9 nM.

B3: S-E6 Fab (Fab, V domains shown)
VH: QVTLRESGPGLVKPSETLSLTCAVSGGSLSSVNYYWSWIRQHPGKGLEWIGYIYYSGSTNYNPSLKSRVTMSLDTSKNQFSLKLSSVTAADTAVYYCATPGAIMGALHIWGQGTLVTVSS
VL: QAVLTQPSSASSTPGQRVIISCSGSSSNIGSNTVSWYQQVPGAAPKLLIYFDYRRPSGVPDRFSGTRSGTSASLGISGLQSEDEADYYCAAWDDSLSAWVFGRGTKLTVL
B3 showed a Kd [1] of 11.4 nM.

B4: S-E6 full-length human IgG4e1(S228P) antibody (antibody, V domains shown)
VH: B3 VH
VL: B3 VL
notes: also called S-E6 IgG; source: HEK293F, secreted; clarified culture supernatant, and purified (Mabselect)
B4: no binding [4].
